Laboratory results as given in publication PMC2807882, “Conservation of DNA-binding specificity and oligomerisation properties within the p53 family” (BMC Genomics, 2009).

B1: Human p63 isoform ΔNp63β, with C-terminal FlAsH tag, FlAsH-labelled (natural protein, UniProt Q9H3D4-4 1-461, looked up)
chain: MLYLENNAQTQFSEPQYTNLGLLNSMDQQIQNGSSSTSPYNTDHAQNSVTAPSPYAQPSSTFDALSPSPAIPSNTDYPGPHSFDVSFQQSSTAKSATWTYSTELKKLYCQIAKTCPIQIKVMTPPPQGAVIRAMPVYKKAEHVTEVVKRCPNHELSREFNEGQIAPPSHLIRVEGNSHAQYVEDPITGRQSVLVPYEPPQVGTEFTTVLYNFMCNSSCVGGMNRRPILIIVTLETRDGQVLGRRCFEARICACPGRDRKADEDSIRKQQVSDSTKNGDGTKRPFRQNTHGIQMTSIKKRRSPDDELLYLPVRGRETYEMLLKIKESLELMQYLPQHTIETYRQQQQQQHQHLLQKQTSIQSPSSYGNSSPPLNKMNSMNKLPSVSQLINPQQRNALTPTTIPDGMGANIPMMGTHMPMAGDMNGLSPTQALPPPLSMPSTSHCTPPPPYPTDCSIVRIWQV
modifications: FlAsH (from FlAsH-EDT2, an arsenic derivative of fluorescein) on the C-terminal CCPGCC tetra-cysteine tag
notes: the whole isoform is surmised; also called ΔNp63β-FlAsH; not shown: 6xHis, N-terminal, cleaved; lipoyl domain, N-terminal, cleaved; FlAsH-tag CCPGCC, C-terminal, kept
B2: Human p73 isoform ΔNp73β, with C-terminal FlAsH tag, FlAsH-labelled (natural protein, UniProt O15350-9 1-450, looked up)
chain: MLYVGDPARHLATAQFNLLSSTMDQMSSRAASASPYTPEHAASVPTHSPYAQPSSTFDTMSPAPVIPSNTDYPGPHHFEVTFQQSSTAKSATWTYSPLLKKLYCQIAKTCPIQIKVSTPPPPGTAIRAMPVYKKAEHVTDVVKRCPNHELGRDFNEGQSAPASHLIRVEGNNLSQYVDDPVTGRQSVVVPYEPPQVGTEFTTILYNFMCNSSCVGGMNRRPILIIITLEMRDGQVLGRRSFEGRICACPGRDRKADEDHYREQQALNESSAKNGAASKRAFKQSPPAVPALGAGVKKRRHGDEDTYYLQVRGRENFEILMKLKESLELMELVPQPLVDSYRQQQQLLQRPSHLQPPSYGPVLSPMNKVHGGMNKLPSVNQLVGQPPPHSSAATPNLGPVGPGMLNNHGHAVPANGEMSSSHSAQSMVSGSHCTPPPPYHADPSLVRTWGP
modifications: FlAsH (from FlAsH-EDT2, an arsenic derivative of fluorescein) on the C-terminal CCPGCC tetra-cysteine tag
notes: the whole isoform is surmised; also called ΔNp73β-FlAsH; not shown: 6xHis, N-terminal, cleaved; lipoyl domain, N-terminal, cleaved; FlAsH-tag CCPGCC, C-terminal, kept
B3: Xlp53 (Xenopus laevis p53) with C-terminal FlAsH tag, labelled with FlAsH (natural protein, frog (Xenopus laevis), UniProt P07193 1-363, looked up)
chain: MEPSSETGMDPPLSQETFEDLWSLLPDPLQTVTCRLDNLSEFPDYPLAADMTVLQEGLMGNAVPTVTSCAVPSTDDYAGKYGLQLDFQQNGTAKSVTCTYSPELNKLFCQLAKTCPLLVRVESPPPRGSILRATAVYKKSEHVAEVVKRCPHHERSVEPGEDAAPPSHLMRVEGNLQAYYMEDVNSGRHSVCVPYEGPQVGTECTTVLYNYMCNSSCMGGMNRRPILTIITLETPQGLLLGRRCFEVRVCACPGRDRRTEEDNYTKKRGLKPSGKRELAHPPSSEPPLPKKRLVVVDDDEEIFTLRIKGRSRYEMIKKLNDALELQESLDQQKVTIKCRKCRDEIKPKKGKKLLVKDEQPDSE
modifications: FlAsH (from FlAsH-EDT2, Lumio Green) on the C-terminal CCPGCC tetra-cysteine tag
notes: also called frog p53; not shown: FlAsH tag CCPGCC, C-terminal, kept; 6xHis, N-terminal, cleaved; lipoyl domain, N-terminal, cleaved
B4: Drp53 (zebrafish p53) with C-terminal FlAsH tag, labelled with FlAsH (natural protein, zebrafish (Danio rerio), UniProt P79734 1-373, looked up)
chain: MAQNDSQEFAELWEKNLIIQPPGGGSCWDIINDEEYLPGSFDPNFFENVLEEQPQPSTLPPTSTVPETSDYPGDHGFRLRFPQSGTAKSVTCTYSPDLNKLFCQLAKTCPVQMVVDVAPPQGSVVRATAIYKKSEHVAEVVRRCPHHERTPDGDNLAPAGHLIRVEGNQRANYREDNITLRHSVFVPYEAPQLGAEWTTVLLNYMCNSSCMGGMNRRPILTIITLETQEGQLLGRRSFEVRVCACPGRDRKTEESNFKKDQETKTMAKTTTGTKRSLVKESSSATLRPEGSKKAKGSSSDEEIFTLQVRGRERYEILKKLNDSLELSDVVPASDAEKYRQKFMTKNKKENRESSEPKQGKKLMVKDEGRSDSD
modifications: FlAsH (from FlAsH-EDT2, Lumio Green) on the C-terminal CCPGCC tetra-cysteine tag
notes: not shown: FlAsH tag CCPGCC, C-terminal, kept; 6xHis, N-terminal, cleaved; lipoyl domain, N-terminal, cleaved
B5: Dmp53 (Drosophila melanogaster p53) with C-terminal FlAsH tag, labelled with FlAsH (natural protein, fruit fly (Drosophila melanogaster), UniProt Q9N6D8 1-385, looked up)
chain: MYISQPMSWHKESTDSEDDSTEVDIKEDIPKTVEVSGSELTTEPMAFLQGLNSGNLMQFSQQSVLREMMLQDIQIQANTLPKLENHNIGGYCFSMVLDEPPKSLWMYSIPLNKLYIRMNKAFNVDVQFKSKMPIQPLNLRVFLCFSNDVSAPVVRCQNHLSVEPLTANNAKMRESLLRSENPNSVYCGNAQGKGISERFSVVVPLNMSRSVTRSGLTRQTLAFKFVCQNSCIGRKETSLVFCLEKACGDIVGQHVIHVKICTCPKRDRIQDERQLNSKKRKSVPEAAEEDEPSKVRRCIAIKTEDTESNDSRDCDDSAAEWNVSRTPDGDYRLAITCPNKEWLLQSIEGMIKEAAAEVLRNPNQENLRRHANKLLSLKKRAYELP
modifications: FlAsH (from FlAsH-EDT2, Lumio Green) on the C-terminal CCPGCC tetra-cysteine tag
notes: amplified from a cDNA library (Simon Bullock); also called fruit fly p53; not shown: FlAsH tag CCPGCC, C-terminal, kept; 6xHis, N-terminal, cleaved; lipoyl domain, N-terminal, cleaved
B6: human ΔNp63β with C-terminal FlAsH tag, labelled with FlAsH (natural protein, UniProt Q9H3D4-4 1-461, looked up)
chain: B1 chain
modifications: FlAsH (from FlAsH-EDT2, Lumio Green) on the C-terminal CCPGCC tetra-cysteine tag
notes: also called human p63; not shown: FlAsH tag CCPGCC, C-terminal, kept; 6xHis, N-terminal, cleaved; lipoyl domain, N-terminal, cleaved
B7: human ΔNp73β with C-terminal FlAsH tag, labelled with FlAsH (natural protein, UniProt O15350-9 1-450, looked up)
chain: B2 chain
modifications: FlAsH (from FlAsH-EDT2, Lumio Green) on the C-terminal CCPGCC tetra-cysteine tag
notes: also called human p73; not shown: FlAsH tag CCPGCC, C-terminal, kept; 6xHis, N-terminal, cleaved; lipoyl domain, N-terminal, cleaved
B8: Xenopus laevis p53, full length, with C-terminal FlAsH tag, FlAsH-labelled (natural protein, UniProt P07193 1-363, looked up)
chain: B3 chain
modifications: FlAsH (from FlAsH-EDT2, an arsenic derivative of fluorescein) on the C-terminal CCPGCC tetra-cysteine tag
notes: p53 of frog (Xenopus laevis), full-length protein, from a Mammalian Gene Collection clone; also called Xlp53; Xlp53-FlAsH; not shown: 6xHis, N-terminal, cleaved; lipoyl domain, N-terminal, cleaved; FlAsH-tag CCPGCC, C-terminal, kept
B9: Danio rerio p53, full length, with C-terminal FlAsH tag, FlAsH-labelled (natural protein, UniProt P79734 1-373, looked up)
chain: B4 chain
modifications: FlAsH (from FlAsH-EDT2, an arsenic derivative of fluorescein) on the C-terminal CCPGCC tetra-cysteine tag
notes: p53 of zebrafish (Danio rerio), full-length protein, from a Mammalian Gene Collection clone; also called Drp53; Drp53-FlAsH; not shown: 6xHis, N-terminal, cleaved; lipoyl domain, N-terminal, cleaved; FlAsH-tag CCPGCC, C-terminal, kept
B10: Drosophila melanogaster p53, full length, with C-terminal FlAsH tag, FlAsH-labelled (natural protein, UniProt Q9N6D8 1-385, looked up)
chain: B5 chain
modifications: FlAsH (from FlAsH-EDT2, an arsenic derivative of fluorescein) on the C-terminal CCPGCC tetra-cysteine tag
notes: p53 of Drosophila melanogaster, full-length protein, amplified from a cDNA library; also called Dmp53; Dmp53-FlAsH; not shown: 6xHis, N-terminal, cleaved; lipoyl domain, N-terminal, cleaved; FlAsH-tag CCPGCC, C-terminal, kept

Molecular target: the molecule itself
Assay: AUC; sedimentation velocity with fluorescence detection, FlAsH-labelled protein at 5-500 nM (monomer); 150 mM NaCl, 25 mM phosphate pH 7.2, 10% glycerol, BSA 0.2 mg/mL, 1 mM β-mercaptoethanol, 10°C; dimer to monomers; Kd expressed in concentration of monomer

| Protein | Kd |
| --- | --- |
| B1 | 9.3 nM |
| B2 | 5.7 nM |

Molecular target: the molecule itself
Assay: AUC; sedimentation velocity with fluorescence detection, FlAsH-labelled protein at 5-500 nM; 150 mM NaCl, 25 mM phosphate pH 7.2, 10% glycerol, BSA 0.2 mg/mL, 1 mM beta-mercaptoethanol, 10°C; tetramer to dimers; Kd expressed in concentration of monomer

| Protein | fold weaker self-association (dimer-tetramer equilibrium) than Dmp53, Drp53 and ΔNp73β | stoichiometry N |
| --- | --- | --- |
| B3 | ~10 fold | 4 |
| B4 |  | 4 |
| B5 |  | 4 |
| B6 | ~5 fold | 4 |
| B7 |  | 4 |

Molecular target: the molecule itself
Assay: AUC; sedimentation velocity with fluorescence detection, FlAsH-labelled protein at 5-500 nM (also at 60 k rpm); 150 mM NaCl, 25 mM phosphate pH 7.2, 10% glycerol, BSA 0.2 mg/mL, 1 mM beta-mercaptoethanol, 10°C; dimer to monomers; Kd expressed in concentration of monomer

| Protein | fold weaker primary dimer (monomer-dimer equilibrium) than human p53 |
| --- | --- |
| B6 | 9 fold |
| B7 | 6 fold |

Molecular target: the molecule itself
Assay: AUC; sedimentation velocity with fluorescence detection, FlAsH-labelled protein at 5-500 nM (monomer); 150 mM NaCl, 25 mM phosphate pH 7.2, 10% glycerol, BSA 0.2 mg/mL, 1 mM β-mercaptoethanol, 10°C; tetramer to dimers; Kd expressed in concentration of monomer

| Protein | Kd |
| --- | --- |
| B8 | 27.6 nM |
| B9 | 3.6 nM |
| B10 | 1.7 nM |
| B1 | 12.2 nM |
| B2 | 2.4 nM |
